Reference: a protein production outcome set (Wang et al. 2014)

Assay: label from the status in PepcDB records
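Also: failed if final PepcDB status was selected cloned or expressed and not failed if soluble or beyond.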

Sequence | protein production
AHKYKRAEVVQNALLELSHIATQVSSLEEFYLGVHHHLKQLISADNFFIATLDVNSGAISVPFFADEKDAHPSQLYPEQSLSTLLQQGLTGYVFRTGQTLLCDESKVDELVNAEEIVNLGSPCHLWLGVPIKHEDIVTAVLVVQTYDTNVSYGDIEVELMTFICHHITGVMERLKHQEQLEQAIQQ | not failed
MEVSENATTRGSLALVSIILPVHNAEQWLDECLMSVLQQDFEGAMELSVFNDASKDKSRAIIEKWKVKLEDSGISVVIGGHDSPSPRGVGYSKNQAVAQSTGSYLCFLDSDDVMMPQRVRMQYEAAGQHPTSIIGCQVRRDPPDSTERYTRWINHLTSDQLLTQVFTSHGPTVIMPTWFCSRAWFSHVGPFDEGGQGVPEDLLFFYEHLRKGGGVFRVDHSLLLYRYHLYAATHSVLEMTIWTHRVHFLEEQVLPHWKSFTIWNAGKQGRKLYRSLTAASRHKVVAFSDVDENKIRKGFYCYEDSQERPKPKVPILHFQAAQSPFVICVKLDLTGGEFEDNLKSLDLQEGRDFVHFS | failed
SCEKENIGIEVTPVNAKFIITPVVIDATTGTDVTQSAEISFSKGNGTYEGTPELASESININAKYKGMTGSASVTIPALKAGQFGAKEVTIILSENFFAQEESSNSQIETTKHSGFKNNTSDYWYYITVTYTKKEGSEVIKNDYEGDDSEIKNIIDAYNKGVREDKVTLNDVQVLAHSRFSVFVDYMKTTSVYQIIEKSPKRDGNPVASFTVDSYNTIVSPKNEQIPGHGHAPSHGHGHGHGDDSNAGGGIIIAD | not failed
MTFTSNLPSSSEQSISPPASSFSSSTDTLKDIDIPHNGADLSTYSKFLALYCRSDKCDDFYSLEEKQNCKFGDQWLDFINTIHNLDFSESEVSGRVSERILPASLANKFTNNLGVAIKISEYTRDDERQIRGCVTTVENENSFNNWFVYHILDQSQLSLSEHPIVTKEVKYHELFADFFEKNLKNTIVNDQWNFGGRDYFIERSRYFTDRYLRIECILPAFPCKSSNEQKVYGSVPDKGEELALKRLIKATQDLVKIYPPGMKIWIVSDGHVFSDCIGVDDDVVSTYTTKLHELYKRVAIPGVDAIGFCGLNDLFFSGAASKVFDPKWVSDVEVAHYTGTQICPKSDLSRQILMKGCDTDAGRLRKQIAIEGHPRLHLYRGFSRFMMEDLSLLEHFQSYSRKKFKKIISMIAFNMIKRNDAYSNLVELIFPHHLRISIHAHTNSGPKFGIKVISNEQCSIVSSLEDLDEPKFEDFLHIPTPWHNCVVKVEDEKEKYFLTKSKVVKEALEKGMYDGVWKDTRFDIGEGGHFVIKKIS | failed
ANLYWFRADWFERPDLKKKFKDKYGYELGVPVNWSAYEDIAKFFSEDVKEIDGKKVFGHMDYGKKDPSLGWRFTDAWFSMAGSGDKGLPNGLPVDEWGIRVEDCHPVGSSITRGGDTNGPAAVFATQKYIDWLKAYAPPEAAGMTFSESGPVPSQGNVAQQIFWYTAFTADMTKPGLPVMNADGTPKWRMAPSPKGPYWKEGMKLGYQDVGSWTFLKSSDEKKRLAAWLYAQFVTSKSVSLKKTIVGLTPIRESDINS | failed
MAARRAPISRRDRPAKPALSRRWIVDTAVALMRAEGLEKVTMRRLAQELDTGPASLYVYVANTAELHAAVLDALLGEVDLTGAGAEEDWREQLRAVLTSYTLVLFAHPQLARSALVARPSGENYLRLVERVLELLARSGAPGAQVAWGVDKLLQDATATAAEQATQEHDPASHEDWSATVRALRDADEATHPAIASHMPLLVAGSAHDRLRWSFDVLVNGITRTPVPGPARGAAG | not failed
MAKRFMCETLGTACLGLSMALAAPAAFALADIIETPARPTELAPQSLLTDATRAGDRIVSVGERGHVIYSDDQGQSWTQAEVPVAVTLTAVDFGTEQHGWVVGHSGVVLHSSDSGETWELQLDGIQAAELVIASKEDQIAELEERIEQAPEEEKADLEWALDDLFFALENTQADMEIGPVNPFLDVWFEDENHGFVVGAYGMILRTQDGGQTWEDWAPKLDNPTNFHYNSIAEVAGGALVVVGEAGQIHVSVDGGESWEKRESPYDGSLFGVTGTGRVNEVLAFGLRGNTLLSTDLGRSWTMVPNEGGATLNNAAVAEDGRITLVGNGGAVLMSTNNGESFRPYFRNDREGVMGVVPLPGTNLLLVGEGGVEITDARGRNLN | failed
RKIFTNKCERAGCRQREMMKLTCERCSRNFCIKHRHPLDHDCSGEGHPTS | not failed
MPKGLMLTDLAIAGLLLIVAKVIRVHTPLLQRMYIPSAVLAGLFGLVFGPAMLDLLPWTDTFTANASLLTAALFSALGLATDVPSPKVVAQRAGSLWAFNQIASVSQWLFAAMFGLLLTTFFWPEINPGFGVTMSAGFMGGHGSASVVGDIFTGLGWEDGFTLGLTFATVGIFISISIGMLMLQFALKMGWIRSFTTFDSMDEHERKGLVKPTEQEPVMKDTMSSLSVDSFAIHAALVVVVTAFSYVAANYLSSFHDKVQIPTFVTGFLGGMLVRIVAKQTKASRYLCDGAFKHAAGISTDYLIIFGISAIKITVLAQYLAPMIVLAIGGIAFTLWLIFWVAPRIMGDDWFEKGIFSWGWLTGTVAMGIALLRIVDPKMRSKVLDDYAIAYVPGSITDIFIISLMPIAMYNGMEWQALGVGLAYIAVVLFIWRFVFKRSGQTVTDAS | failed
MHIAILGCTSQIAKDLIRSIYVYSQHDLILFGRTPQQTQSWLAENGITSRCSVNQYEEYPNIDHDVVINFVGIGDPSKAAAMGGSIFDITLHYDELVLNELKKYPDRRYLFLSSGAAYGSSFLEPADADTPSTININNLLPQEYYSVAKLHAECRHRSLKEYAIVDLRVFNVFSRTQDLEARFFITDIVRSIHSGTELITSSDMIYRDFMHPKDFYQLVERVLNAPPMNISLDCYSRQPVDKTTLLDEMKKTFGLSYRVKESNMSINATGIKPCYYSKNKRAAEFGYLPEYSSLETIIEETNAILGLQKTVLEHHHHHH | not failed
MTAPEETAPVSVRKPSKPDLWKDSLGRTATRALQILLILTLTVVAVFGLLQIRLLVIPVLIALILAAAIGPFVNMLRRRGWRGGLATGVAFLGLLIVLGGVITVIVMSVRSQWDELISQAAAGLDELESFLLTGPFPIDREQLNQAREAVVEFAQSSQVRSGAVTGLSVVTEFLAGASLVVVILFFFLKDGAKIWEFFLRPFKGRREAKLRRVGKRTMEVLGGYVRGTAIVALVDTVAIGAALLIMQVPLAIPLAIIVFIGAFIPLVGATVAGILAALVALVANGPIVALIVIIVVIAVNQLEGDLLQPVVMGKSLELHALVILMALTAGTILAGIIGAVLAVPIAAVTWAIIQVWTAEDPDLEPMNPELPPANSQPT | failed
MSQMSPGQARVVDPILSTHARGYRQSTLIGKKLFPVAPVAQYGGKILTFGKEAFRLYNTKRAPGANTKRIDFGYEGDPYSIVPSALEAKVPRELMRDASQVPGIDLGARSVNTVLRIMALAHEHECAQIALDPAKYNADHKVKLVGSARWTSPDSDPTKDVETAKEAIADSIGMEPNRLMLSRKALSACKYHPKLIERVKYTRAESITIDMLKALWEVEEIVVGTARVATGANDSFGDVWGPDVWLGYVSDNPDPSVEEPSFGYTYQIEGHPLVEVPYWDNNAKSWIYGVSDDNTPALSGMLAGYLIEDAGLPAA | not failed
MNIIMNINSKAKGFVCGAVAAATYGMNPLFTLPLYKEGMSVDSVLFYRYGFAVLILGILMKVQGQSFALKKNEVLPLIVGGLLFSASSLLLFLSYKHMDAGIASTILFVYPVMVALIMFLFFHEKVSLLTVFCILLALSGIGLLYKGEGGETLSLVGMLLVILSSLSYAVYIVGVNHSTLKLMSTAKLTFYALLFGLSIYIVRLNFCSDLQAVPSLPAWGNILAMAFLPTVISLVCTAVSIHTIGSTSTAILGALEPVTALFFGVMIFGERLTPRLMLGILMILVAVTFIVVGKPLMTFLKEEVAGGMKRKLTR | failed
MNDQVLRTQTDRRQLQQIIAGLTEGVILIEPDQRILWANEAALAMHGVDSLEGLGADTGEYRERFRLRYRNNHPLQEGQYPAERLVAGECFSDVVVEVFPAADEDTRWVHRVRGLVLTTPEDKPDCLVLILHDAT | not failed
MFTTVITPRVSETDGVGHINNTTVPVWFEAGRHEIFKLFTPDLSFKRWRMVIIRMEVDYVNQMYYGQDVTVYTGIERIGNTSLTIYEEIHQNGVVCAKGRSVYVNFNFDTGRPEPIPDDIRVKLREHVWQPGE | not failed
MSIIAFLSYVIMTSITPGPSNILMMNEAQRFGFTGSWRFSSGILAGFAVLGILSGAFTISLYNWIPVVEPYFKLAGACYLIYLALQVGFTKNKKQDSTEARSSFISGFIFQLINIKSILFFLTVMSAFVLPFNHSLKSTIYYLALAIVLGWLALLLWSGFGSVFKRVFAKHDRVFRVLMCLLLMYSAVSIFR | failed
MIEIKNVNKVFYQGSKEILALKDINLHIAKGTIFGVIGSSGAGKSTLIRCVNMLEAPSSGSIIVDGVDLTTLSKKQLVETRRNIGMIFQHFNLLSSRTVFDNVALPLELAGKDKSQITTKVTELLKLVGLADKHESYPSNLSGGQKQRVAIARALASDPSVLLCDEATSALDPATTQSILELLKEINRKLNITILLITHEMEVVKSICHEVAIIGGGELVEKGTVGDIFAHPKTELAHEFIRSTLDLSIPEDYQARLQPNRVEGSYPLVRMEFTGATVDAPLMSQISRKYNIDVSILSSDLDYAGGVKFGMMVAELFGNEQDDSAAIEYLREHNVKVEVLGYVL | not failed
MNIEDDENKEKKETCLSYIKKINMSEIINDEAIGKRAEYLWNLALSAVYINVKLSMKYITLIKKITKNNLLFDNICCHYCNLIYIPFYNCKITHSPNQGKATYTCLLCKRKKKINLQHLSKHKNIYPLKHSDKHKPSTSNLSNVNFFLINEIDNYEIKKNNVPLNKDDTSNTENQLITKQENKNEDTLKDVSCADMQKEEHIINQDNIINQDNIINQDNIINQDNIINQDNIINQDNIINQDNIINQDNIINQDNIINQDNIINKNDMYQNLSYLFRIDYGINKDDTQKGNEIYDKSIVNESEKCKSVHIENNKNDDNKNMNSESKNIKNERKRKSQNNNIAQNKNQGFPNVNMNDGFLNFNKSKKKKGKSILDIL | failed
MMNLALQQRISELGPWFQNMRFGEIETAPDHFLGDYPAFKWEGFKHVVPKDLEGCSVLDIGCNAGFYALEMKRRNAGRVLGIDSDPRYLEQARFAADHFGLDVEFRQMSVYEVSKLGERFDLVLFMGVLYHLRHPLLALDLLYEHVVADLMLFQCLQRGEERIAKLEEDYDFSEWKIFDRSDFPKLFFVEERFAADPTNWFIPNKAAVEAMLRSSGFVIEANPEREVYLCRRGRRPYKVEPPPG | failed
MPINTLESSPWRGSRHDFCRERLEPLLDQAGIRINGDRPWDIRVHDPAFFRRMFADASLGLGESYVDGWWDCDRIDEFICRIIRAGLADRFRSWRDAVAALQARLFNLQHAARAFHVGQRHYDIGNDLYGCMLDRRMIYSCGYWKDATTLDEAQEAKLDLVFRKIGLEPGMRVLDIGCGWGGAARFAAEKYGVEVYGVTVSAEQARYAREICQGLPVTIELKDYRDIEGHFDRAYSLGMFEHVGCKNYGTYMKLVADRLPDDGLFLLHTIGINTSDNHGNPWVDRYIFPNSMLPSIAQIGTATENRLVMEDWQNFGPDYDRTLLTWYDRFEWHWPSLRPRYGDRFYRMWRFYLLSFAGAFRARYIQLWQIVLSPKGLTRRYDAPR | failed
MKRKQESKGAGEKRQGAGGRGQGEKKQGKQGRQGRQGRQGEKSPVPSPQSPIPNPQFTTPNPDEWLQIGKIVSAQGLSGEVRVYPDSDFPERFEVPGTRWLLRPGQTEPQPIELLHGRYLENKNLYVLQLAGVENRSQSEELRGCMLFVPASDRPELGEDEYHVVDLIGMEVFLQASGDLVGAVVDVIPAGNDLLEVSLHEPVTSDKKPKTVLIPFVKAIAPVVDLQTRRIEITPPPGLLELGSGV | failed
